From patent US20180172683A1, “METHODS FOR ANALYZING THE INTERACTION BETWEEN A TARGET PROTEIN AND A LIGAND” (UNIVERSITY OF SOUTHERN CALIFORNIA, priority 2015, published 2018) come the findings set out here.

Usually Kd stands for the equilibrium constant for the complex coming apart. High values mean weaker binding, low ones tighter binding. As a reminder, the koff is a measure of how fast the partners let go of each other.

Test [1] has as its target B-cell lymphoma extra-large protein (Bcl-xL), first 209 amino acids with N-terminal avitag (UniProt Q07817). As to the kind of experiment: HTSK: from on- and off-rates of the mRNA-peptide fusion.
Test [2] has the same target. The test can be described thus: HTSK: mRNA-peptide fusion pool on Bcl-xL beads, next-generation sequencing.

Ends that are not written are not given here.

Sequence of B-cell lymphoma extra-large protein (Bcl-xL), first 209 amino acids with N-terminal avitag (Q07817 other isoform, or with tags, fused parts or gaps): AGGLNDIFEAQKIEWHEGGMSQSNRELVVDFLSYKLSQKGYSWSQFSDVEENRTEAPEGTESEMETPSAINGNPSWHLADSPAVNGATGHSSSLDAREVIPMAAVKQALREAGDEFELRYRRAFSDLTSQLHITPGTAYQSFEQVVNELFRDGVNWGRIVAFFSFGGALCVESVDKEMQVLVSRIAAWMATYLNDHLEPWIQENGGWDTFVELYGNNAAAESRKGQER

B1: D79, mRNA-peptide fusion in the doped selection pool (HTSK) (peptide, not shown: a dimerising Fc or GST)
peptide: MIDTNVILNYKKAADHFSITM
modifications: not fully specified; also: C-terminus joined via puromycin to DNA linker and reverse-transcribed mRNA
In test [1], B1 gave a Kd of 0.0024 nM. In test [2], the koff worked out at 3.3e-07 s⁻¹.

B2: E1, mRNA-peptide fusion in the selection pool (HTSK) (peptide, not shown: a dimerising Fc or GST)
peptide: MIETITIYNYKKAADHFSMSM
modifications: not fully specified; also: C-terminus joined via puromycin to DNA linker and reverse-transcribed mRNA
In test [1], B2 had a Kd of 0.023 nM. In test [2], the koff was determined as 2.5e-06 s⁻¹.

B3: D1, mRNA-peptide fusion in the selection pool (HTSK) (peptide, not shown: a dimerising Fc or GST)
peptide: MIAISTIYNYKKAADHYAMTK
modifications: not fully specified; also: C-terminus joined via puromycin to DNA linker and reverse-transcribed mRNA
Regarding B3, in test [1], the Kd came out at 0.015 nM. The same molecule displayed a koff in test [2] of 1e-06 s⁻¹.
